Results published in patent EP4242225A1 (Consejo Superior De Investigaciones Científicas, dated 2023).
Read-outs that look alike come from different tables or passages of the source.

Key:
[1] = molecular target: T1, RBD-Fc, Wuhan strain (WA1) (SARS-CoV-2; human, UniProt P0DTC2 332-534); assay: ELISA, biotin-labeled bispecific hcAb on plate-bound RBD-Fc
T1 construct: range 332-534; also called WA1 RBD; WA1 RBD-Fc

[2] = molecular target: S protein of SARS-CoV-2 on pseudotyped retroviral particles (Spp) (SARS-CoV-2, UniProt P0DTC2 14-1273); assay: cell-based or functional assay
[3] = molecular target: T2, monomeric RBD of SARS-CoV-2 S (WA1) (SARS-CoV-2, UniProt P0DTC2 332-534); assay: ELISA, hcAb dilutions on plate-bound monomeric RBD
T2 construct: domain: RBD

[4] = molecular target: T3, RBD-FH, monomeric RBD (332-534) with a FLAG peptide and an 8xHis-tag at the C-terminus (SARS-CoV-2, UniProt P0DTC2 332-534)
[5] = molecular target: T3, RBD-FH, monomeric RBD (332-534) with a …; remark: listed apart in the source

B1: bispecific hcAb 1.29-1.10 (bispecific antibody)
heavy: QVQLVESGGGSVQAGGSLRLSCAASGYTINTDAVAWFRQAPGKGDERVAVIYTGSGNTNYADSVKGRFTISQDNAKNTVYLQMNSLKPEDTALYYCASGYYGASGYDFNNWGQGTQVTVSSGGGGSGGGGSGGGGSQVQLVESGGGSVQAGGSLRLSCAASGYTYSTCRKGWYRQAPGKERELVASITADGATYYLDSVKGRLTISQDNAKNTVYLQMNSLKPEDTAVYYCAASVKDFTCTFNSWGQGTQVTVSS
B1: binds [1].

B2: hcAb 1.10 (Fc fusion)
heavy: QVQLVESGGGSVQAGGSLRLSCAASGYTYSTCRKGWYRQAPGKERELVASITADGATYYLDSVKGRLTISQDNAKNTVYLQMNSLKPEDTAVYYCAASVKDFTCTFNSWGQGTQVTVSS
In the case of B2, the “inhibition of Spp entry into Vero-E6 cells (luciferase, 48 h.p.i.)” value (“inhibition … (luciferase, 48 h.p.i.)” below) [2] is reported as over 90%.

B3: hcAb 1.26 (Fc fusion)
heavy: QVQLVESGGGLVQAGGSLRLSCAATGYTWSSVCMGWFRQAPGKEREGVAGIPSGRNRPYYADSVKGRFTISQDNAKNAVFLLMNSLKPEDTAIYYCAPCSAPHDPEYNYWGQGTQVTVSS
B3 gave an EC50 [3] of 1 nM, a Kd [4] of 0.08 nM and a koff [4] of 0.000148 s⁻¹. The kon [4] was 1.76e+06 M⁻¹ s⁻¹ and the “inhibition … (luciferase, 48 h.p.i.)” value [2] was at least 90%.

B4: Nb 1.26 (VHH)
VHH: B3 heavy
Binder B4 has a Kd [5] of 0.26 nM, a koff [5] of 0.000624 s⁻¹ and a kon [5] of 2.44e+06 M⁻¹ s⁻¹.

B5: hcAb 1.29 (Fc fusion)
heavy: QVQLVESGGGSVQAGGSLRLSCAASGYTINTDAVAWFRQAPGKGDERVAVIYTGSGNTNYADSVKGRFTISQDNAKNTVYLQMNSLKPEDTALYYCASGYYGASGYDFNNWGQGTQVTVSS
B5 showed an EC50 [3] of 35 nM, a Kd [4] of 0.63 nM and a koff [4] of 0.000221 s⁻¹. For the same binder, the kon [4] was 353000 M⁻¹ s⁻¹ and the “inhibition … (luciferase, 48 h.p.i.)” value [2] was at least 90%.

B6: Nb 1.29 (VHH)
VHH: B5 heavy
B6 gave a Kd [5] of 12.9 nM, a koff [5] of 0.00614 s⁻¹ and a kon [5] of 476000 M⁻¹ s⁻¹.

B7: hcAb 1.16 (Fc fusion)
heavy: QVQLVESGGGSVQAGGSLRLSCAASGNTSKRKCVGWFRRAPGKEREGVTLIYTVGGSTVYADSVKGRFTISQDNAKDTVYLQMNSLKPEDSAMYYCAAESWGRQCNLETHRFTFWGQGTQVTVSS
notes: also called 1.16Fc
In the case of B7, the Kd [4] is reported as 0.25 nM, the koff [4] is reported as 0.000438 s⁻¹ and the kon [4] is reported as 1.72e+06 M⁻¹ s⁻¹.

B8: Nb 1.16 (VHH)
VHH: B7 heavy
In the case of B8, the Kd [5] is reported as 3.59 nM, the koff [5] is reported as 0.00705 s⁻¹ and the kon [5] is reported as 1.96e+06 M⁻¹ s⁻¹.

B9: hcAb 2.1 (Fc fusion)
heavy: QVQLVESGGGSVQAGGSLRLSCAAFGATISSAHMGWFRQAPGKEREGVAFRYTDGSSTYYTTSVRGRFTISQDNAKNTVYLQMNSLKPEDTAMYYCASNPSWGRLVGGQYNNWGQGTQITVSS
notes: also called 2.1Fc
Binder B9 has a Kd [4] of 0.36 nM, a koff [4] of 0.000281 s⁻¹ and a kon [4] of 771000 M⁻¹ s⁻¹. The “inhibition … (luciferase, 48 h.p.i.)” value [2] was over 90%.

B10: Nb 2.1 (VHH)
VHH: B9 heavy
B10 gave a Kd [5] of 1.74 nM, a koff [5] of 0.00233 s⁻¹ and a kon [5] of 1.34e+06 M⁻¹ s⁻¹.

B11: hcAb 2.15 (Fc fusion)
heavy: QVQLVESGGGSVQAGGSLKLSCAASGYASWARKCIGWFRQAPGQEREGVAAIFDFDGSTYYSDSVKGRFTISGDNAKNTVSLQMNSLLPKDTAVYYCTVAFGTCDNWYRGRGDYWGQGTQVTVSS
For B11, the “inhibition … (luciferase, 48 h.p.i.)” value [2] was over 90%.

B12: Nb 2.11 (VHH)
VHH: QVQLVESGGGSVQAGGSLRLSCAASGDASNRKCVSWFRRAPGKEREGVALIFPVGSSTAYADSVKGRFTISQDSAKDTVYLQMNNLKPEDSGTYYCAAVSWGGRCNLETQTVTFWGQGTQVTVSS
B12 was tested, and the Kd [5] was 1.72 nM, the koff [5] was 0.0054 s⁻¹ and the kon [5] was 3.15e+06 M⁻¹ s⁻¹.

B13: hcAb 2.11 (Fc fusion)
heavy: B12 VHH
notes: also called 2.11Fc
B13 was tested, and the Kd [4] was 0.16 nM, the koff [4] was 0.0003 s⁻¹ and the kon [4] was 1.82e+06 M⁻¹ s⁻¹.

B14: hcAb 2.20 (Fc fusion)
heavy: QVQLVESGGGSVQAGGSLRLSCAASGYTYNNYYMGWFRQAPGKEREGVAAINSDGLDTYVADSVKGRFTISRDNAKDTVHLQMNSLKPEDTAIYSCATGRTVYYSGYDFRLSVDDYWGQGTQVTVSS
notes: also called 2.20Fc; 2.20 hcAb
Binder B14 has a Kd [4] of 0.21 nM, a koff [4] of 0.000233 s⁻¹ and a kon [4] of 1.09e+06 M⁻¹ s⁻¹. For the same binder, the “inhibition … (luciferase, 48 h.p.i.)” value [2] was at least 90%.

B15: Nb 2.20 (VHH)
VHH: B14 heavy
B15 showed a Kd [5] of 0.77 nM, a koff [5] of 0.00101 s⁻¹ and a kon [5] of 1.3e+06 M⁻¹ s⁻¹.
